Consider 15 molecules from patent US20230257470A1 (published 2023).

To fix the notation:
T1: human FcγRIIa type R (human, UniProt P12318 36-217)
T1 construct: also called FcgRIIaR; FcγRIIa(R)
T1 chain: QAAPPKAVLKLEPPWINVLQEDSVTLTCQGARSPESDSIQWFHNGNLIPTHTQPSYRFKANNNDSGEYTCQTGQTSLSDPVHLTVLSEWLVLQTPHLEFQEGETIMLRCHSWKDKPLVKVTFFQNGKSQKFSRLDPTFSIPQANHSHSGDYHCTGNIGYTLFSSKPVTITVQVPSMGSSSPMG

T2: human FcγRIIa type H (human, UniProt P12318 36-217)
T2 construct: also called FcgRIIaH; FcγRIIa(H)
T2 sequence: T1 chain with R133H

T3: human FcγRIIb (human, UniProt P31994 43-217, limits assumed)
T3 construct: also called FcgRIIb; FcγIIB
T3 sequence: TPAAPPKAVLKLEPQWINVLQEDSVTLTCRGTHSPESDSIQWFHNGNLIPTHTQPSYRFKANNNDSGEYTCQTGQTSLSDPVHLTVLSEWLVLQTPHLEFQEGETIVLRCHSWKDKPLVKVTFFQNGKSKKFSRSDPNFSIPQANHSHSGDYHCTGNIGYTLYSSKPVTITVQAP

B1: IL6R-BP082/IL6R-L (antibody, human IgG1, name in EU numbering)
heavy: QVQLQESGPGLVKPSETLSLTCAVSGHSISHDHAWSWVRQPPGEGLEWIGFISYSGITNYNPSLQGRVTISRDNSKNTLYLQMNSLRAEDTAVYYCARSLARTTAMDYWGEGTLVTVSSASTKGPSVFPLAPSSKSTSGGTAALGCLVKDYFPEPVTVSWNSGALTSGVHTFPAVLQSSGLYSLSSVVTVPSSSLGTQTYICNVNHKPSNTKVDKKVEPKSCDKTHTCPPCPAPDLLGGDSVFLFPPKPKDTLMISRTPEVTCVVVDVSHEDPEVKFNWYVDGVEVHNAKTKPREEQYNSTYRVVSVLTVLHQDWLNGKEYKCKVSNKALPKPIEKTISKAKGQPREPQVYTLPPSRDELTKNQVSLTCLVKGFYPSDIAVEWESNGQPENNYKTTPPVLDSDGSFFLYSKLTVDKSRWQQGNVFSCSVMHEALHNHYTQESLSLSP
light: DIQMTQSPSSLSASVGDRVTITCRASQDISSYLNWYQQKPGKAPKLLIYYTSRLHSGVPSRFSGSGSGTDFTFTISSLQPEDIATYYCQQGNTLPYTFGQGTKVEIK
notes: copies: 2 + 2
B2: IL6R-2B261/IL6R-L (antibody, human IgG1, name in EU numbering)
heavy: B1 heavy with Y298D, K332A
light: B1 light
notes: copies: 2 + 2
B3: IL6R-BP087/IL6R-L (antibody, human IgG1, name in EU numbering)
heavy: B1 heavy with D235E, L236Y
light: B1 light
notes: copies: 2 + 2
B4: IL6R-BP151/IL6R-L (antibody, human IgG1, name in EU numbering)
heavy: B1 heavy with L236Y, G239D, K328A, K332R
light: B1 light
notes: the list runs over r36 and r37; copies: 2 + 2
B5: IL6R-BP132/IL6R-L (antibody, human IgG1, name in EU numbering)
heavy: B1 heavy with K328A
light: B1 light
notes: copies: 2 + 2
B6: IL6R-BP085/IL6R-L (antibody, human IgG1, name in EU numbering)
heavy: B1 heavy with D235E, G239D
light: B1 light
notes: copies: 2 + 2
B7: IL6R-BP181/IL6R-L (antibody, human IgG1, name in EU numbering)
heavy: B1 heavy with P273G, K328A
light: B1 light
notes: the list runs over r48 and r49; copies: 2 + 2
B8: IL6R-2B253/IL6R-L (antibody, human IgG1, name in EU numbering)
heavy: B1 heavy with V325M, K332A
light: B1 light
notes: copies: 2 + 2
B9: IL6R-BF648/IL6R-L (antibody, human IgG1, name in EU numbering)
heavy: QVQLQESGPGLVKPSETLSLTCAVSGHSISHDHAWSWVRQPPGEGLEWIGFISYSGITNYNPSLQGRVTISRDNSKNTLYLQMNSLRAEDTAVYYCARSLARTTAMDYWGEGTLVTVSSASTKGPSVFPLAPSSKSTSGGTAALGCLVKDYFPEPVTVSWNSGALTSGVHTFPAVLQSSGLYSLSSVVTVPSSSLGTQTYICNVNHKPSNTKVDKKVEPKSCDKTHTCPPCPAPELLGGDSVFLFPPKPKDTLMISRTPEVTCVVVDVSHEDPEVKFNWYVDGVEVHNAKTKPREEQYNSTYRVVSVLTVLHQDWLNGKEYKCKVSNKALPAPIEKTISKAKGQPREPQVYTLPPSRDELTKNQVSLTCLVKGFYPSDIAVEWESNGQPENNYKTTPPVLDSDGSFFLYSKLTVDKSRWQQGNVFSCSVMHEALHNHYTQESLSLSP
light: B1 light
notes: copies: 2 + 2
B10: IL6R-BP178/IL6R-L (antibody, human IgG1, name in EU numbering)
heavy: B1 heavy with G239D, P273G
light: B1 light
notes: the list runs over r43 and r44; copies: 2 + 2
B11: IL6R-BP086/IL6R-L (antibody, human IgG1, name in EU numbering)
heavy: B1 heavy with D235E, K328A
light: B1 light
notes: copies: 2 + 2
B12: IL6R-BP131/IL6R-L (antibody, human IgG1, name in EU numbering)
heavy: B1 heavy with G239D
light: B1 light
notes: copies: 2 + 2
B13: IL6R-B3/IL6R-L (antibody, human IgG1)
heavy: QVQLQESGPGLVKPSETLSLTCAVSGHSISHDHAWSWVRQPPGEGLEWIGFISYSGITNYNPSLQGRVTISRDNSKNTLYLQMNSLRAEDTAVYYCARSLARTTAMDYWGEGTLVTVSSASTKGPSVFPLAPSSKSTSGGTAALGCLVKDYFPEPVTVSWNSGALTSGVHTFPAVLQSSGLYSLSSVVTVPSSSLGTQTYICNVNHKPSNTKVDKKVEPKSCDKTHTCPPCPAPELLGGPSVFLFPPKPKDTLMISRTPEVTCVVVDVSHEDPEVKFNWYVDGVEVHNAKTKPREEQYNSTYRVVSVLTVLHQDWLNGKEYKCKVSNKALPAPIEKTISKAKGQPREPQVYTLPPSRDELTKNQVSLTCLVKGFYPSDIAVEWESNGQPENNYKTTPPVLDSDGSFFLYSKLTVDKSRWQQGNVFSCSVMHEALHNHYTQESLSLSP
light: B1 light
notes: IL6R-G1d with K439E (EU numbering); parent polypeptide of the variants; copies: 2 + 2
B14: IL6R-BP083/IL6R-L (antibody, human IgG1, name in EU numbering)
heavy: B1 heavy with D235E, Y298D
light: B1 light
notes: copies: 2 + 2
B15: IL6R-BP084/IL6R-L (antibody, human IgG1, name in EU numbering)
heavy: B1 heavy with D235E, V325M
light: B1 light
notes: copies: 2 + 2

Positions count from the first letter of the chain named. Names may count otherwise.

T5 sequence (P08637 other isoform, or with tags, fused parts or gaps limits assumed): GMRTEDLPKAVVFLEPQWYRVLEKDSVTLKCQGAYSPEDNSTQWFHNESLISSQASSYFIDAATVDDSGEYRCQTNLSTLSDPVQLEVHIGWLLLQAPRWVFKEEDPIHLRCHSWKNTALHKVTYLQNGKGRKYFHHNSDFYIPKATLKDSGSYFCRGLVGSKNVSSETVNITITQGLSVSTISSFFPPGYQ

One assay deals with T1, human FcγRIIa type R. Description: SPR (Biacore), FcγR over captured antibody; binding amount divided by that of IL6R-BF648/IL6R-L x 100.
Experimental: (§1) According to the following method, relative binding activities were calculated for the results of analyzing interactions with the respective FcγRs.
With B1, the relative binding activity is 126 relative (IL6R-BF648/IL6R-L = 100).

With B2, the relative binding activity was 94 relative (IL6R-BF648/IL6R-L = 100).

Regarding B3, the relative binding activity is 163 relative (IL6R-BF648/IL6R-L = 100).

Regarding B4, the relative binding activity was 705 relative (IL6R-BF648/IL6R-L = 100).

B5: the relative binding activity was 191 relative (IL6R-BF648/IL6R-L = 100).

As for B6, the relative binding activity is 279 relative (IL6R-BF648/IL6R-L = 100).

Take B7: the relative binding activity is 362 relative (IL6R-BF648/IL6R-L = 100).

For B8, the relative binding activity is 288 relative (IL6R-BF648/IL6R-L = 100).

With B9, the relative binding activity is 100 relative (IL6R-BF648/IL6R-L = 100).

As for B10, the relative binding activity is 653 relative (IL6R-BF648/IL6R-L = 100).

Regarding B11, the relative binding activity is 155 relative (IL6R-BF648/IL6R-L = 100).

On to B12, for which the relative binding activity is 364 relative (IL6R-BF648/IL6R-L = 100).

Consider B13, for which the relative binding activity was 625 relative (IL6R-BF648/IL6R-L = 100).

As to B14, the relative binding activity was 87 relative (IL6R-BF648/IL6R-L = 100).

In the case of B15, the relative binding activity was 203 relative (IL6R-BF648/IL6R-L = 100).

Another assay deals with T4, human FcγRIa (human, UniProt P12314 16-292, limits assumed).
T4 construct: also called FcgRIa; FcγRI (CD64)
T4 sequence (P12314 16-292 limits assumed): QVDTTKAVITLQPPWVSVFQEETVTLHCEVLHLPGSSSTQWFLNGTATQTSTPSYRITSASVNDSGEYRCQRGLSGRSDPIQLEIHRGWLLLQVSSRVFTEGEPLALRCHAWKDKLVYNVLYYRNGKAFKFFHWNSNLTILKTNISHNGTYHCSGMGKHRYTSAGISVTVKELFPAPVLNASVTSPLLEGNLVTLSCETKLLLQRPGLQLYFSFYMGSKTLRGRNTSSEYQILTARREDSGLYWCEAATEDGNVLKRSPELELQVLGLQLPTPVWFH
The assay is described as above.
Experimental: as §1
For the molecule B1, the relative binding activity was 74 relative (IL6R-BF648/IL6R-L = 100).

B2: the relative binding activity is 100 relative (IL6R-BF648/IL6R-L = 100).

As for B3, the relative binding activity is 33 relative (IL6R-BF648/IL6R-L = 100).

Take B4: the relative binding activity is 39 relative (IL6R-BF648/IL6R-L = 100).

For the molecule B6, the relative binding activity was 19 relative (IL6R-BF648/IL6R-L = 100).

For the molecule B7, the relative binding activity was 108 relative (IL6R-BF648/IL6R-L = 100).

As to B8, the relative binding activity was 155 relative (IL6R-BF648/IL6R-L = 100).

In the case of B9, the relative binding activity was 100 relative (IL6R-BF648/IL6R-L = 100).

On to B10, for which the relative binding activity was 51 relative (IL6R-BF648/IL6R-L = 100).

For the molecule B11, the relative binding activity is 72 relative (IL6R-BF648/IL6R-L = 100).

With B12, the relative binding activity was 33 relative (IL6R-BF648/IL6R-L = 100).

As to B13, the relative binding activity was 145 relative (IL6R-BF648/IL6R-L = 100).

B14: the relative binding activity was 50 relative (IL6R-BF648/IL6R-L = 100).

Regarding B15, the relative binding activity was 109 relative (IL6R-BF648/IL6R-L = 100).

A further assay addresses T5, human FcγRIIIa type V (human, UniProt P08637 17-208, limits assumed).
T5 construct: also called FcgRIIIaV; FcγRIIIa(V)
Described as above.
Experimental: as §1
For the molecule B1, the relative binding activity is 87 relative (IL6R-BF648/IL6R-L = 100).

B2: the relative binding activity is 87 relative (IL6R-BF648/IL6R-L = 100).

Consider B3, for which the relative binding activity was 158 relative (IL6R-BF648/IL6R-L = 100).

Consider B4, for which the relative binding activity is 221 relative (IL6R-BF648/IL6R-L = 100).

On to B5, for which the relative binding activity is 120 relative (IL6R-BF648/IL6R-L = 100).

Take B6: the relative binding activity was 104 relative (IL6R-BF648/IL6R-L = 100).

Turning to B7, the relative binding activity was 122 relative (IL6R-BF648/IL6R-L = 100).

For the molecule B8, the relative binding activity was 126 relative (IL6R-BF648/IL6R-L = 100).

As to B9, the relative binding activity was 100 relative (IL6R-BF648/IL6R-L = 100).

With B11, the relative binding activity was 123 relative (IL6R-BF648/IL6R-L = 100).

Regarding B12, the relative binding activity was 118 relative (IL6R-BF648/IL6R-L = 100).

As to B13, the relative binding activity was 3260 relative (IL6R-BF648/IL6R-L = 100).

As to B14, the relative binding activity is 107 relative (IL6R-BF648/IL6R-L = 100).

Consider B15, for which the relative binding activity was 106 relative (IL6R-BF648/IL6R-L = 100).

The target of a further assay is T2, human FcγRIIa type H. The assay is described as above.
Experimental: as §1
For the molecule B1, the relative binding activity is 106 relative (IL6R-BF648/IL6R-L = 100).

With B2, the relative binding activity is 91 relative (IL6R-BF648/IL6R-L = 100).

On to B3, for which the relative binding activity was 179 relative (IL6R-BF648/IL6R-L = 100).

With B4, the relative binding activity is 621 relative (IL6R-BF648/IL6R-L = 100).

In the case of B5, the relative binding activity was 130 relative (IL6R-BF648/IL6R-L = 100).

In the case of B6, the relative binding activity was 158 relative (IL6R-BF648/IL6R-L = 100).

For B7, the relative binding activity was 150 relative (IL6R-BF648/IL6R-L = 100).

For the molecule B8, the relative binding activity was 207 relative (IL6R-BF648/IL6R-L = 100).

As to B9, the relative binding activity is 100 relative (IL6R-BF648/IL6R-L = 100).

For B10, the relative binding activity is 259 relative (IL6R-BF648/IL6R-L = 100).

For the molecule B11, the relative binding activity is 116 relative (IL6R-BF648/IL6R-L = 100).

With B12, the relative binding activity is 253 relative (IL6R-BF648/IL6R-L = 100).

In the case of B13, the relative binding activity is 1600 relative (IL6R-BF648/IL6R-L = 100).

Take B14: the relative binding activity is 91 relative (IL6R-BF648/IL6R-L = 100).

On to B15, for which the relative binding activity was 162 relative (IL6R-BF648/IL6R-L = 100).

The target in another assay is T3, human FcγRIIb. The assay is described as above.
Experimental: as §1
Turning to B1, the relative binding activity was 136 relative (IL6R-BF648/IL6R-L = 100).

Turning to B2, the relative binding activity is 115 relative (IL6R-BF648/IL6R-L = 100).

On to B3, for which the relative binding activity is 137 relative (IL6R-BF648/IL6R-L = 100).

Take B5: the relative binding activity is 150 relative (IL6R-BF648/IL6R-L = 100).

Take B6: the relative binding activity was 152 relative (IL6R-BF648/IL6R-L = 100).

Regarding B8, the relative binding activity was 156 relative (IL6R-BF648/IL6R-L = 100).

With B9, the relative binding activity was 100 relative (IL6R-BF648/IL6R-L = 100).

As to B10, the relative binding activity is 179 relative (IL6R-BF648/IL6R-L = 100).

B11: the relative binding activity was 137 relative (IL6R-BF648/IL6R-L = 100).

Take B13: the relative binding activity was 58 relative (IL6R-BF648/IL6R-L = 100).

For B14, the relative binding activity is 122 relative (IL6R-BF648/IL6R-L = 100).

In the case of B15, the relative binding activity is 141 relative (IL6R-BF648/IL6R-L = 100).
